Measured values as given in patent US20240067734A1 (Hoffmann-La Roche, published 2024).

T1: CEA expressed on LS180 tumor cells (human, UniProt P06731 35-685)
T1 construct: whole, on cells; also called carcinoembryonic antigen; CEACAM5
T1 sequence (looked up): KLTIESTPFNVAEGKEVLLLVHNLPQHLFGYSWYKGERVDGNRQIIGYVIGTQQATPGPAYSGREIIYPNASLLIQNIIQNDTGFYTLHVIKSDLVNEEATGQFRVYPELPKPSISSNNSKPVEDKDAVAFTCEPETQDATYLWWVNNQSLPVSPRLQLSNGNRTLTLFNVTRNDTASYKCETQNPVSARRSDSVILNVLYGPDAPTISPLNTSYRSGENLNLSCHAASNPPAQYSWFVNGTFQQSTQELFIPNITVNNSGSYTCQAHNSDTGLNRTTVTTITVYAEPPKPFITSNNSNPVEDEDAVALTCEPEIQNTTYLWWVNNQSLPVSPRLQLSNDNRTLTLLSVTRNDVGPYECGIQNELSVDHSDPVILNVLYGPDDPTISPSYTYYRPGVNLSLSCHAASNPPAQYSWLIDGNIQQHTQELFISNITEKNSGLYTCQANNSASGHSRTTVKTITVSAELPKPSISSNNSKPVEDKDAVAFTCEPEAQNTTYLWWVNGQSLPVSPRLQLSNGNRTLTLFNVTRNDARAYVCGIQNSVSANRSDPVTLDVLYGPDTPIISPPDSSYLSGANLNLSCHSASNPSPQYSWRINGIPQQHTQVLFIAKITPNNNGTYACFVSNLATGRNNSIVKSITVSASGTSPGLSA

T2: human NKG2D expressed on cells (human, UniProt P26718 1-216)
T2 construct: the cell type is named under assay; also called NKG2D on NK92 cells; HEK293T human NKG2D
T2 chain: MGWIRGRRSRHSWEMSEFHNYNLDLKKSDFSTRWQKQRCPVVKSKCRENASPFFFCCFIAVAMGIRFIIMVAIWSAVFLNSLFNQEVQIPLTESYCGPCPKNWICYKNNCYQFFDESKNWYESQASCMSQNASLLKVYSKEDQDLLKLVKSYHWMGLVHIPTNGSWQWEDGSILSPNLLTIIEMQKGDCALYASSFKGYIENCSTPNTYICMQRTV

T3: his avi huNKG2D ECD (human, biotinylated at the avi-tag (in the ELISA))
T3 construct: Human NKG2D ECD with N-terminal H6-avi tags, forms non-covalent dimers; also called recombinant human NKG2D
T3 chain: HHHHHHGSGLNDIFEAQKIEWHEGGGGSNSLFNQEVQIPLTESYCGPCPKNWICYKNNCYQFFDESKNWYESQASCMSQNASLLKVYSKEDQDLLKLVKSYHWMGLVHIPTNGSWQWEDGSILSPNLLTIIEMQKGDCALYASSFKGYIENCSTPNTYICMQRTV

T4: hu N(A2B2)A-avi-His (human)
T4 construct: Construct containing the A2 domain of human CEA, with avi and His tags; also called human CEA (A2 domain)
T4 chain: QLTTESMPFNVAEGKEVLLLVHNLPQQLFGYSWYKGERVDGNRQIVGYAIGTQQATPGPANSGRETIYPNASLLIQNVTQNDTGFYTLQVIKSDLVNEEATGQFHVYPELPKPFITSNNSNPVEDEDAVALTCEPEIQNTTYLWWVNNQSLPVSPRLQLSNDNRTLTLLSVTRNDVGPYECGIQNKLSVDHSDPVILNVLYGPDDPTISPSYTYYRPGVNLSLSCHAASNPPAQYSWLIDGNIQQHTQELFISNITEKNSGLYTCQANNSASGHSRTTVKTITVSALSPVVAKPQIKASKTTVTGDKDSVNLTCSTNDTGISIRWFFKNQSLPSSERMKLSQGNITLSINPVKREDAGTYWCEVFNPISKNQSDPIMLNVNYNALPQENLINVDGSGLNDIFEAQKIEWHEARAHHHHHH

B1: NKG2D×CEA bispecific antibody, anti-NKG2D 395 (C50S) / anti-CEA B9, M format (bispecific antibody, V domains shown)
VH 1: QEQLEQSGGGLVTPGGSLKLCCTASGFDFNTFWMTWVRQAPGKGLEWIGSIHGGSGSRDYASWVNGRFTLSRDIDQSTACLQVNSLTAADTAMYYCARPGYRSWSKTFDLWGQGTMVTVSS
VL 1: DIQMTQSPSSLSASVGDRVTITCRASQDISGALNWYQQKPGKAPNLLIYAASSLQSGVPSRFSGSGSGTDYTLTISSLQPEDFATYYCQQANSFPLTFGGGTKVEIK
VH 2: VQLVESGGGLVQPGRSLRLSCAASGFTVSSYWMHWVRQAPGKGLEWVGFIRNKANGGTTEYAASVKGRFTISRDDSKNTLYLQMNSLRAEDTAVYYCARDRGLRFYFDYWGQGTTVTVSS
VL 2: QAVLTQPASLSASPGASASLTCTLRRGINVGAYSIYWYQQKPGSPPQYLLRYKSDSDKQQGSGVSSRFSASKDASANAGILLISGLQSEDEADYYCMIWHSGASAVFGGGTKLTVL
notes: also called monovalent format M
B2: NKG2D×CEA bispecific antibody in M format, P1AE4980 / huA5B7 (bispecific antibody, human IgG1, kappa, L234A L235A)
heavy 1: not shown
heavy 2: EVQLLESGGGLVQPGGSLRLSCAASGFTFTDYYMNWVRQAPGKGLEWLGFIGNKANAYTTEYSASVKGRFTISRDKSKNTLYLQMNSLRAEDTATYYCTRDRGLRFYFDYWGQGTTVTVSSASTKGPSVFPLAPSSKSTSGGTAALGCLVEDYFPEPVTVSWNSGALTSGVHTFPAVLQSSGLYSLSSVVTVPSSSLGTQTYICNVNHKPSNTKVDEKVEPKSCDKTHTCPPCPAPEAAGGPSVFLFPPKPKDTLMISRTPEVTCVVVDVSHEDPEVKFNWYVDGVEVHNAKTKPREEQYNSTYRVVSVLTVLHQDWLNGKEYKCKVSNKALGAPIEKTISKAKGQPREPQVCTLPPSRDELTKNQVSLSCAVKGFYPSDIAVEWESNGQPENNYKTTPPVLDSDGSFFLVSKLTVDKSRWQQGNVFSCSVMHEALHNHYTQKSLSLSP
light 1: QEQLVQSGAEVKKPGESLKISCKGSGFDFNTFWMTWVRQMPGKGLEWMGSIHGGSGSRDYSPSFQGQVTISADIDQSTAYLQWSSLKASDTAMYYCARPGYRSWSKTFDLWGQGTTVTVSSASVAAPSVFIFPPSDEQLKSGTASVVCLLNNFYPREAKVQWKVDNALQSGNSQESVTEQDSKDSTYSLSSTLTLSKADYEKHKVYACEVTHQGLSSPVTKSFNRGEC
light 2: EIVLTQSPATLSLSPGERATLSCRASSSVTYIHWYQQKPGQAPRSWIYATSNLASGIPARFSGSGSGTDFTLTISSLEPEDFAVYYCQHWSSKPPTFGQGTKLEIKRTVAAPSVFIFPPSDRKLKSGTASVVCLLNNFYPREAKVQWKVDNALQSGNSQESVTEQDSKDSTYSLSSTLTLSKADYEKHKVYACEVTHQGLSSPVTKSFNRGEC
notes: also called NKG2D×CEA bispecific antibody (humanized anti-NKG2D antibody variant P1AE4980, M format)

Tests used:
[1] = biological target: T1, CEA expressed on LS180 tumor cells; test: flow cytometry on CEA-positive LS180 cells, anti-human Fc secondary antibody
Experimental: (§1) Viability of NK92 cells or tumor cells (MKN-45, LS180) was checked and cells were re-suspended and adjusted to a density of 1 mio cells/ml. 100 μl per well of this cell suspension (containing 0.1 mio cells) were seeded into a 96 well round bottom plate. The plate was centrifuged for 4 min at 400×g and the supernatant was removed. Then 40 μl of the diluted antibodies or FACS buffer were added to the cells and incubated for 30 min at 4° C. After the incubation the cells were washed twice with 150 μl FACS buffer per well. […] The cells were incubated for an additional 30 min at 4° C. To remove unbound antibody, the cells were washed again twice with 150 μl per well FACS buffer. To fix the cells, 100 μl of FACS buffer containing 1% PFA were added to the wells. Before measuring, the cells were re-suspended in 150 μl FACS buffer. The fluorescence was measured using a BD flow cytometer.

[2] = biological target: T2, human NKG2D expressed on cells; test: flow cytometry on NKG2D-positive NK92 cells, anti-human Fc secondary antibody
Experimental: as §1

[3] = biological target: T2, human NKG2D expressed on cells; test: flow cytometry on NK cells (CD3- CD56+) within freshly isolated human PBMCs, anti-human Fc secondary antibody
Experimental: (§2) Viability of freshly isolated peripheral blood mononuclear cells (PBMCs) was checked and cells were adjusted to a density of 1 mio cells/ml in FACS buffer. 100 μl per well of the PBMCs (containing 0.1 mio cells) were seeded into a 96 well round bottom plate. The plate was centrifuged for 4 min at 400×g and the supernatant was removed. Then 0.5 μl FC BLOCK™ (BD Bioscience) in 20 μl total volume per well were added and the plate was incubated for 30 min at 4° C. Supernatant was removed and then 40 μl of the diluted anti-NKG2D antibodies were added to the cells and incubated for additional 30 min at 4° C. After the incubation, the cells were washed twice with 150 μl FACS buffer per well. […] The cells were incubated for an additional 30 min at 4° C. To remove unbound antibody, the cells were washed again twice with 150 μl per well FACS buffer. To fix the cells, 100 μl of FACS buffer containing 1% PFA were added to the wells. Before measuring the cells were re-suspended in 150 μl FACS buffer. The fluorescence was measured using a BD flow cytometer.

[4] = biological target: T2, human NKG2D expressed on cells; test: flow cytometry on CD8 T cells (CD3+ CD8+) within freshly isolated human PBMCs, anti-human Fc secondary antibody
Experimental: as §2

[5] = biological target: T2, human NKG2D expressed on cells; test: flow cytometry; NK92 cells
[6] = biological target: T3, his avi huNKG2D ECD; test: SPR Biacore T200; antigen captured via anti-His, bispecific analyte
Experimental: (§3) On a CM5 chip, an anti-penta-His capture antibody (Qiagen Penta-His Antibody, BSA-free; #34660) was immobilized by standard amine coupling on flow cells 2 and 3 at approximately 12′000 RU. […] Regeneration at the level of the anti-H6 tag capture antibody was achieved by 2 pulses of 10 mM glycine/HCl pH 2.0 for 60 s. Data were double-referenced against the unimmobilized flow cell 1 and a zero concentration of the analyte. The sensorgrams of the analytes were fitted to a simple 1:1 Langmuir interaction model.

[7] = biological target: T4, hu N(A2B2)A-avi-His; test: as above
Experimental: as §3

[8] = biological target: T2, human NKG2D expressed on cells; test: flow cytometry on NK92 cells, PE anti-human Fc secondary antibody

| Binder | EC50 (read off the curve) [1] | EC50 (read off the curve) [2] | EC50 (read off the curve) [3] | EC50 (read off the curve) [4] | EC50 [5] | Kd [6] | Kd [7] | EC50 (read off the curve) [8] |
| --- | --- | --- | --- | --- | --- | --- | --- | --- |
| B1 | ~10 nM | ~4 nM | ~5 nM | ~5 nM | – | – | – | – |
| B2 | – | – | – | – | 7.38 nM | 12.6 nM | 3.45 nM | ~3 nM |
